A word on the Kd: it is the concentration at which binding is half-saturated. One may read the koff as the first-order rate constant of dissociation. Broadly, the kon is the rate constant with which the complex forms.

The text below walks through data of patent EP4671273A1 (Anaveon AG, dated 2025).

Sequences and labels used below:
B1: ZAP122m1 Fab (Fab, V domains shown)
VH: QVQLQESGPGLVKPSETLSLTCTVSGGSISSDFWGWIRQPPGKGLEWIGYISSRGSTNYNPSLKRRVTISVDTSRNQFSLKLSSVTAADTAVYYCARSAGVTDFDFWGQGTLVTVSS
VL: DIQMTQSPSSVSASVGDRVTITCRASQGISSWLAWYYHKPGKAPKLLIYVASSLQSGVPSRFSGSGSGTDFTLTISSLQPEDFATYYCQQANSFPLTFGGGTKVEIK
notes: Fab
B2: ZAP122m7 Fab (Fab, V domains shown)
VH: QVQLQESGPGLVKPSETLSLTCTVSGGSISSDFWGWIRQPPGKGLEWIGYISSRGSTNYNPSLKRRVTISVDTSRNQFSLKLSSVTAADTAVYYCARSAGVTDFDFWGQGTLVTVSS
VL: DIQMTQSPSSVSASVGDRVTITCRASQGISSWLAWYQHKPGKAPKLLIYVASSLQSGVPSRFSGSGSGTDFTLTISSLQPEDFATYYCQQANAFPLTFGGGTKVEIK
notes: Fab
B3: ZAP122m15 Fab (Fab, V domains shown)
VH: QVQLQESGPGLVKPSETLSLTCTVSGGSISSDFWGWIRQPPGKGLEWIGYIYSRGSTNYNPSLKRRVTISVDTSRNQFSLKLSSVTAADTAVYYCARSAGVTDFDFWGQGTLVTVSS
VL: DIQMTQSPSSVSASVGDRVTITCRASQGISSWLAWYQHKPGKAPKLLIYVASSLQSGVPSRFSGSGSGTDFTLTISSLQPEDFATYYCQQANSFPLTFGGGTKVEIK
notes: Fab
B4: ZAP122m9 Fab (Fab, V domains shown)
VH: QVQLQESGPGLVKPSETLSLTCTVSGGSISSDFWGWIRQPPGKGLEWIGYISSRGSTNYNPSLKRRVTISVDTSRNQFSLKLSSVTAADTAVYYCARSAGVTDFDFWGQGTLVTVSS
VL: DIQMTQSPSSVSASVGDRVTITCRASQGISSWLAWYQHKPGKAPKLLIYVASSLQSGVPSRFSGSGSGTDFTLTISSLQPEDFATYYCQQANSFALTFGGGTKVEIK
notes: Fab
B5: ZAP122m12 Fab (Fab, V domains shown)
VH: QVQLQESGPGLVKPSETLSLTCTVSGGSISSYFWGWIRQPPGKGLEWIGYISSRGSTNYNPSLKRRVTISVDTSRNQFSLKLSSVTAADTAVYYCARSAGVTDFDFWGQGTLVTVSS
VL: DIQMTQSPSSVSASVGDRVTITCRASQGISSWLAWYQHKPGKAPKLLIYVASSLQSGVPSRFSGSGSGTDFTLTISSLQPEDFATYYCQQANSFPLTFGGGTKVEIK
notes: Fab
B6: ZAP122m16 Fab (Fab, V domains shown)
VH: QVQLQESGPGLVKPSETLSLTCTVSGGSISSDFWGWIRQPPGKGLEWIGYISYRGSTNYNPSLKRRVTISVDTSRNQFSLKLSSVTAADTAVYYCARSAGVTDFDFWGQGTLVTVSS
VL: DIQMTQSPSSVSASVGDRVTITCRASQGISSWLAWYQHKPGKAPKLLIYVASSLQSGVPSRFSGSGSGTDFTLTISSLQPEDFATYYCQQANSFPLTFGGGTKVEIK
notes: Fab
B7: ZAP122m6 Fab (Fab, V domains shown)
VH: QVQLQESGPGLVKPSETLSLTCTVSGGSISSDFWGWIRQPPGKGLEWIGYISSRGSTNYNPSLKRRVTISVDTSRNQFSLKLSSVTAADTAVYYCARSAGVTDFDFWGQGTLVTVSS
VL: DIQMTQSPSSVSASVGDRVTITCRASQGISSWLAWYQHKPGKAPKLLIYVASSLQSGVPSRFSGSGSGTDFTLTISSLQPEDFATYYCQQAASFPLTFGGGTKVEIK
notes: Fab
B8: ZAP122m10 Fab (Fab, V domains shown)
VH: QVQLQESGPGLVKPSETLSLTCTVSGGSISSDFWGWIRQPPGKGLEWIGYISSRGSTNYNPSLKRRVTISVDTSRNQFSLKLSSVTAADTAVYYCARSAGVTDFDFWGQGTLVTVSS
VL: DIQMTQSPSSVSASVGDRVTITCRASQGISSWLAWYQHKPGKAPKLLIYVASSLQSGVPSRFSGSGSGTDFTLTISSLQPEDFATYYCQQANSFPATFGGGTKVEIK
notes: Fab
B9: ZAP122m2 Fab (Fab, V domains shown)
VH: QVQLQESGPGLVKPSETLSLTCTVSGGSISSDFWGWIRQPPGKGLEWIGYISSRGSTNYNPSLKRRVTISVDTSKNQFSLKLSSVTAADTAVYYCARSAGVTDFDFWGQGTLVTVSS
VL: DIQMTQSPSSVSASVGDRVTITCRASQGISSWLAWYQHKPGKAPKLLIYVASSLQSGVPSRFSGSGSGTDFTLTISSLQPEDFATYYCQQANSFPLTFGGGTKVEIK
notes: Fab
B10: ZAP122m8 Fab (Fab, V domains shown)
VH: QVQLQESGPGLVKPSETLSLTCTVSGGSISSDFWGWIRQPPGKGLEWIGYISSRGSTNYNPSLKRRVTISVDTSRNQFSLKLSSVTAADTAVYYCARSAGVTDFDFWGQGTLVTVSS
VL: DIQMTQSPSSVSASVGDRVTITCRASQGISSWLAWYQHKPGKAPKLLIYVASSLQSGVPSRFSGSGSGTDFTLTISSLQPEDFATYYCQQANSAPLTFGGGTKVEIK
notes: Fab
B11: ZAP122m4 Fab (Fab, V domains shown)
VH: QVQLQESGPGLVKPSETLSLTCTVSGGSISSDFWGWIRQPPGKGLEWIGYISSRGSTNYNPSLKRRVTISVDTSRNQFSLKLSSVTAADTAVYYCARSAGVTDFDFWGQGTLVTVSS
VL: DIQMTQSPSSVSASVGDRVTITCRASQGISSWLAWYQHKPGKAPKLLIYVASSLQSGVPSRFSGSGSGTDFTLTISSLQPEDFATYYCAQANSFPLTFGGGTKVEIK
notes: Fab
B12: ZAP122m18 Fab (Fab, V domains shown)
VH: QVQLQESGPGLVKPSETLSLTCTVSGGSISSDFWGWIRQPPGKGLEWIGYISSRGSTNYNPSLKSRVTISVDTSRNQFSLKLSSVTAADTAVYYCARSAGVTDFDFWGQGTLVTVSS
VL: DIQMTQSPSSVSASVGDRVTITCRASQGISSWLAWYQHKPGKAPKLLIYVASSLQSGVPSRFSGSGSGTDFTLTISSLQPEDFATYYCQQANSFPLTFGGGTKVEIK
notes: Fab; also called clone m18
B13: ZAP122m5 Fab (Fab, V domains shown)
VH: QVQLQESGPGLVKPSETLSLTCTVSGGSISSDFWGWIRQPPGKGLEWIGYISSRGSTNYNPSLKRRVTISVDTSRNQFSLKLSSVTAADTAVYYCARSAGVTDFDFWGQGTLVTVSS
VL: DIQMTQSPSSVSASVGDRVTITCRASQGISSWLAWYQHKPGKAPKLLIYVASSLQSGVPSRFSGSGSGTDFTLTISSLQPEDFATYYCQAANSFPLTFGGGTKVEIK
notes: Fab
B14: ZAP122m11 Fab (Fab, V domains shown)
VH: QVQLQESGPGLVKPSETLSLTCTVSGGSISSDFWGWIRQPPGKGLEWIGYISSRGSTNYNPSLKRRVTISVDTSRNQFSLKLSSVTAADTAVYYCARSAGVTDFDFWGQGTLVTVSS
VL: DIQMTQSPSSVSASVGDRVTITCRASQGISSWLAWYQHKPGKAPKLLIYVASSLQSGVPSRFSGSGSGTDFTLTISSLQPEDFATYYCQQANSFPLAFGGGTKVEIK
notes: Fab
B15: ZAP122m17 Fab (Fab, V domains shown)
VH: QVQLQESGPGLVKPSETLSLTCTVSGGSISSDFWGWIRQPPGKGLEWIGYISSSGSTNYNPSLKRRVTISVDTSRNQFSLKLSSVTAADTAVYYCARSAGVTDFDFWGQGTLVTVSS
VL: DIQMTQSPSSVSASVGDRVTITCRASQGISSWLAWYQHKPGKAPKLLIYVASSLQSGVPSRFSGSGSGTDFTLTISSLQPEDFATYYCQQANSFPLTFGGGTKVEIK
notes: Fab; also called clone m17
B16: ZAP122m14 Fab (Fab, V domains shown)
VH: QVQLQESGPGLVKPSETLSLTCTVSGGSISSDFWSWIRQPPGKGLEWIGYISSRGSTNYNPSLKRRVTISVDTSRNQFSLKLSSVTAADTAVYYCARSAGVTDFDFWGQGTLVTVSS
VL: DIQMTQSPSSVSASVGDRVTITCRASQGISSWLAWYQHKPGKAPKLLIYVASSLQSGVPSRFSGSGSGTDFTLTISSLQPEDFATYYCQQANSFPLTFGGGTKVEIK
notes: Fab
B17: ZAP122m3 Fab (Fab, V domains shown)
VH: QVQLQESGPGLVKPSETLSLTCTVSGGSISSDFWGWIRQPPGKGLEWIGYISSRGSTNYNPSLKRRVTISVDTSRNQFSLKLSSVTAADTAVYYCARSAGVTDFDFWGQGTLVTVSS
VL: DIQMTQSPSSVSASVGDRVTITCRASQGISSWLAWYQHKPGKAPKLLIYAASSLQSGVPSRFSGSGSGTDFTLTISSLQPEDFATYYCQQANSFPLTFGGGTKVEIK
notes: Fab
B18: ZAP122m13 Fab (Fab, V domains shown)
VH: QVQLQESGPGLVKPSETLSLTCTVSGGSISSDYWGWIRQPPGKGLEWIGYISSRGSTNYNPSLKRRVTISVDTSRNQFSLKLSSVTAADTAVYYCARSAGVTDFDFWGQGTLVTVSS
VL: DIQMTQSPSSVSASVGDRVTITCRASQGISSWLAWYQHKPGKAPKLLIYVASSLQSGVPSRFSGSGSGTDFTLTISSLQPEDFATYYCQQANSFPLTFGGGTKVEIK
notes: Fab

In the test the target is T1, Recombinant hIL-21-Fc (AcroBiosystems) (human, UniProt Q9HBE4 30-162).
T1 construct: bought; also called rhIL-21; not shown: Fc of the bought reagent, not described
T1 sequence (Q9HBE4 30-162): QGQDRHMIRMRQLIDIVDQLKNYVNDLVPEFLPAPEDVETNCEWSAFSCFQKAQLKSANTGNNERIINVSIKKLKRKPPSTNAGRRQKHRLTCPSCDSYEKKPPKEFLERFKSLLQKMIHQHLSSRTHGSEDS
The test is described as follows: SPR, Fab on captured rhIL-21-Fc. In general terms: SPR reads the build-up and loss of mass on a sensor chip optically.
With B1, the Kd amounted to 0.0517 nM, the koff is 1.91e-05 s⁻¹ and the kon came to 369000 M⁻¹ s⁻¹.

With B2, the Kd is under 0.0258 nM, the koff was under 1e-05 s⁻¹ and the kon is 387000 M⁻¹ s⁻¹.

As to B3, the Kd was under 0.0174 nM, the koff was under 1e-05 s⁻¹ and the kon is 574000 M⁻¹ s⁻¹.

In the case of B4, the Kd was found to be 0.249 nM, the koff amounted to 5.93e-05 s⁻¹ and the kon is 238000 M⁻¹ s⁻¹.

Consider B5, for which the Kd was found to be 8.83 nM, the koff was determined as 0.00424 s⁻¹ and the kon amounted to 481000 M⁻¹ s⁻¹.

As for B6, the Kd is under 0.0283 nM, the koff was under 1e-05 s⁻¹ and the kon turned out to be 353000 M⁻¹ s⁻¹.

Take B7: the Kd stood at 0.0379 nM, the koff amounted to 1.43e-05 s⁻¹ and the kon was found to be 379000 M⁻¹ s⁻¹.

As to B8, the Kd is 2.4 nM, the koff is 0.000613 s⁻¹ and the kon is 256000 M⁻¹ s⁻¹.

For B9, the Kd amounted to 0.034 nM, the koff was found to be 1.23e-05 s⁻¹ and the kon was 363000 M⁻¹ s⁻¹.

Turning to B10, the Kd was 9.49 nM, the koff worked out at 0.00251 s⁻¹ and the kon is 264000 M⁻¹ s⁻¹.

With B11, the Kd came out at 3.49 nM, the koff is 0.000253 s⁻¹ and the kon was 72400 M⁻¹ s⁻¹.

On to B12, for which the Kd was 0.0463 nM, the koff was 1.4e-05 s⁻¹ and the kon came out at 302000 M⁻¹ s⁻¹.

Take B13: the Kd is at most 0.088 nM, the koff was at most 1e-05 s⁻¹ and the kon turned out to be 114000 M⁻¹ s⁻¹.

B14: the Kd amounted to 0.0404 nM, the koff turned out to be 1.46e-05 s⁻¹ and the kon is 363000 M⁻¹ s⁻¹.

For B15, the Kd is 0.0842 nM, the koff turned out to be 2.81e-05 s⁻¹ and the kon was 334000 M⁻¹ s⁻¹.

Regarding B16, the Kd worked out at 1.01 nM, the koff was found to be 0.000263 s⁻¹ and the kon stood at 260000 M⁻¹ s⁻¹.

Regarding B17, the Kd was found to be 0.251 nM, the koff came to 9.3e-05 s⁻¹ and the kon amounted to 370000 M⁻¹ s⁻¹.

As for B18, the Kd was found to be 0.0565 nM, the koff was 1.78e-05 s⁻¹ and the kon was found to be 316000 M⁻¹ s⁻¹.
